Measurements: US20240279345A1, “ALPHA 5 BETA 1 INTEGRIN BINDING AGENTS AND USES THEREOF” (PASITHEA THERAPEUTICS CORP., priority 2021, published 2024)
Values belong to the molecule of their own block, whether it stands above or below them.

Assays:
[1] = target: T1, rh-α5β1 in active conformation (binding to 12G10) (Homo sapiens, UniProt P05556+P08648); experiment: 12G10 conformation assay (α5β1 integrin binding to 12G10); conditions: 0.5 mM MnCl2
T1 construct: purchased Acro Biosystems IT1-H52W5
Method: A Nunc MaxiSorp Flat-Bottom 96-well plate (Invitrogen, Waltham, MA, cat. no. 44-2404-21) was coated with 12G10 antibody at 2 μg/mL in 0.2M carbonate-bicarbonate buffer, pH9.4 (Thermo Scientific, Rockford, IL, cat. No. 28382) by incubation overnight at 4° C. Plates were then washed 3 times with Wash Buffer (1× Tris Buffered Saline containing 0.05% Tween20), then blocked with 2% BSA in 1×TBS for 2 hours at room temperature (RT). The human IgG4 chimeric versions of the antibodies were diluted in Standard Diluent (2% BSA, 1×TBS, 0.05% Tween20) containing 0.05 μg/mL rh-α5β1-6×His tagged protein (Acro Biosystems, Newark, DE, cat. no. IT1-H52W5) and 0.5 mM MnCl2 (TEKnova, Hollister, CA, cat. no. M0350) to generate a 7 point 1:5 antibody dilution series ranging from 10,000 ng/mL to 0.64 ng/mL. In addition to human IgG4 chimeric antibodies A-15B08, C-14D12 and A2-7A05, three other antibodies tested included IgG4 isotype control (human IgG4, Kappa, anti-fluorescein Ab00102-13.0, Absolute Antibody, Wilton, UK), anti-integrin alpha-5 clone SNAKA51 (MilliporeSigma, St. Louis, MO, cat. no. MABT201) known to induce integrin alpha-5 into an active conformation, and finally the 12G10 antibody itself which can directly compete with the 12G10 bound to the MaxiSorp plate. For the assays, 100 μL of the antibody dilution series, His-tagged-α5β1 mixture was added to the wells after the blocking solution was removed and wells were washed 3 times. […] Absorbance 450 nm was measured. Data points were normalized to the absorbance of the well containing no antibody for each dilution series and reported as Percent Binding. […]

rh-α5β1 = rh-α5β1 (Homo sapiens, UniProt P05556+P08648); experiment: Competition binding studies by Biolayer Interferometry (epitope groups); conditions: for binding of rh-α5β1 complexed with antibody to C-14D12 on the sensor: C-14D12 immobilized on sensor; for Response (nm) / % Response: secondary mAb pre-mixed with 20 nM rh-α5β1; for % Response: relative to antigen alone; for epitope group: two epitope groups among 6 antibodies
Method in brief: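 Pre-mixed competition BLI: FN-blocking lead antibodies A2-7A05, C-14D12 or A-15B08 loaded on sensors (700 s), quenched, baselined, then exposed 600 s to partner antibody preincubated 1 hr with rh-α5β1. Response relative to antigen alone: >120% = antibodies pair, <80% = antibodies block.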

[2] = antibody preincubated with rh-α5β1

Sequence of rh-α5β1 (P08648 42-894 limits assumed): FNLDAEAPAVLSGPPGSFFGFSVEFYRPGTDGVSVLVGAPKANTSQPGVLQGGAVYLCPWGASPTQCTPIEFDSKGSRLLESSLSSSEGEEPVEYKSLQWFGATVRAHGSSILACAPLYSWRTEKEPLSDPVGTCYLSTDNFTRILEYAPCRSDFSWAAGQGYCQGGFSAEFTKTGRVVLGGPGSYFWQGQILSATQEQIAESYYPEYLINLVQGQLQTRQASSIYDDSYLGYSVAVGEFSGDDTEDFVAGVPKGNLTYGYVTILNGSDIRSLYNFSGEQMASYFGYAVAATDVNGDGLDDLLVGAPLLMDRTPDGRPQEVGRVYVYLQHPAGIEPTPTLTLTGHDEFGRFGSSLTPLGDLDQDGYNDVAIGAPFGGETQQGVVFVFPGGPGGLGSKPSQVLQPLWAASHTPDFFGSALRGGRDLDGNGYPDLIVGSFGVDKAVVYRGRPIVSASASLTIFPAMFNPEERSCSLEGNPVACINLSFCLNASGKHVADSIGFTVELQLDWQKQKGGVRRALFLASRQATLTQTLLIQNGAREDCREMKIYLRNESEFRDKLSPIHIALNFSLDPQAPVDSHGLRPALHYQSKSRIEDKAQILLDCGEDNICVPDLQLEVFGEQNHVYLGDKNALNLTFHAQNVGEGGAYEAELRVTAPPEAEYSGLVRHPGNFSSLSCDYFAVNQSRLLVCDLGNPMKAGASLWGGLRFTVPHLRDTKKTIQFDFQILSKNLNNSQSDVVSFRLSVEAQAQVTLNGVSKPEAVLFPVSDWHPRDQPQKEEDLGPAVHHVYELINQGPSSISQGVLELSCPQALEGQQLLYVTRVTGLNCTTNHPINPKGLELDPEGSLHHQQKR
Sequence of rh-α5β1 (P08648 895-995 limits assumed): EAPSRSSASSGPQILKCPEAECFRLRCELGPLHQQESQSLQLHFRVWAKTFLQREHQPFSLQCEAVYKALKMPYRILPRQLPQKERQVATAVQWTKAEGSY
Sequence of rh-α5β1 (P05556 21-728 limits assumed): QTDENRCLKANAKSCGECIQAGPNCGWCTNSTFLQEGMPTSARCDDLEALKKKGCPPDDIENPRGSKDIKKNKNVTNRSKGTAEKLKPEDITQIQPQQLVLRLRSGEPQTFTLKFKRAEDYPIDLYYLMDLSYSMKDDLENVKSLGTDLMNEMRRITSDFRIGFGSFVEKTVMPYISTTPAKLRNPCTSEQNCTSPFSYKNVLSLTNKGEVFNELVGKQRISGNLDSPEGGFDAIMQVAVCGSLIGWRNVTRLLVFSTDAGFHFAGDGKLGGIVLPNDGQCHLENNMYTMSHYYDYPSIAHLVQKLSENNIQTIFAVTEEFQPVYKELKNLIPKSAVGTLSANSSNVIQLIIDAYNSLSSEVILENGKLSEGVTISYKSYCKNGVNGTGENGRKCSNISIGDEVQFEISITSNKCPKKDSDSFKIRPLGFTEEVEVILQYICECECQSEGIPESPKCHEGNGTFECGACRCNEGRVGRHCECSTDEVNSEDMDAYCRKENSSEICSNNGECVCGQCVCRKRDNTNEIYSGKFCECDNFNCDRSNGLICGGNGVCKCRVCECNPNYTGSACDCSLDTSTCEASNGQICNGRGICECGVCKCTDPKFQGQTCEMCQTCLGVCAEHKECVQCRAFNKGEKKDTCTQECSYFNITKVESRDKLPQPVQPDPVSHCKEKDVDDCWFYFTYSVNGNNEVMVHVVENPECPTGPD
T1 sequence (P08648 42-894 limits assumed): as the sequence (P08648 42-894 limits assumed) above
T1 sequence (P08648 895-995 limits assumed): as the sequence (P08648 895-995 limits assumed) above
T1 sequence (P05556 21-728 limits assumed): as the sequence (P05556 21-728 limits assumed) above

binding of rh-α5β1 complexed with antibody to A-15B08 on the sensor (rh-α5β1; antibody preincubated with rh-α5β1, A-15B08 immobilized on sensor): able to bind
binding of rh-α5β1 complexed with antibody to C-14D12 on the sensor (rh-α5β1; [2]): able to bind
Response (nm) (rh-α5β1; immobilized mAb A2-7A05): −0.17 nm
% Response (rh-α5β1; immobilized mAb A2-7A05): −451.35%
Response (nm) (rh-α5β1; immobilized mAb A-15B08): 0.31 nm
% Response (rh-α5β1; immobilized mAb A-15B08): 150.63%
Response (nm) (rh-α5β1; immobilized mAb C-14D12): 0.31 nm
% Response (rh-α5β1; immobilized mAb C-14D12): 139.39%
epitope group (rh-α5β1): one group
B1: A2-7A05: anti-α5β1 antibody, VH SEQ ID NO:77, VL SEQ ID NO:78; tested as mouse hybridoma antibody and as human IgG4 chimera (antibody, V domains shown)
VH: QVQLQQPGAELVKPGASVKLSCKASGYTFTIYWINWVKQRPGQGLEWIGKIYPGSISTDYNEKFKSKATLTVDTSSSTAYMQLSSLTSDDSAVYYCAITGTGGLAYWGQGTLVTVSA
VL: ENVLTQSPAIMSASLGEKVTMTCRASSSVNYMYWYQQKSDASPKLWIYFTSSLAPGVPGRFSGSGSGNSYSLTISTMEGEDAATYYCQQFTTSPFTFGSGTKLEIK
modifications: A2-7A05 VH Sequence; A2-7A05 VL Sequence
notes: tested as mouse hybridoma antibody and as human IgG4 chimera
effect on α5β1 integrin binding to 12G10 ([1]; dilution series 10,000 to 0.64 ng/mL): did not reduce α5β1 integrin binding to 12G10

reduction of α5β1 integrin binding to 12G10 ([1]; human IgG4 chimeric antibodies): approximately 50%
binding of rh-α5β1 complexed with antibody to A2-7A05 on the sensor (rh-α5β1; antibody preincubated with rh-α5β1, A2-7A05 immobilized on sensor): able to bind
binding of rh-α5β1 complexed with antibody to C-14D12 on the sensor (rh-α5β1; [2]): not able to bind
Response (nm) (rh-α5β1; immobilized mAb A2-7A05): 0.25 nm
% Response (rh-α5β1; immobilized mAb A2-7A05): 666.22%
Response (nm) (rh-α5β1; immobilized mAb A-15B08): −0.15 nm
% Response (rh-α5β1; immobilized mAb A-15B08): −73.81%
Response (nm) (rh-α5β1; immobilized mAb C-14D12): −0.09 nm
% Response (rh-α5β1; immobilized mAb C-14D12): −38.40%
epitope group (rh-α5β1): second group
B2: A-15B08: anti-α5β1 antibody, VH SEQ ID NO:25, VL SEQ ID NO:26; tested as mouse hybridoma antibody and as human IgG4 chimera (antibody, V domains shown)
VH: QVQLKESGPGLVAPSQSLSITCTISGFSLTSYGVHWVRQPPGKGLEWLVVIWSDGSTTYNSTLKSRLSISKDNSKSQVFFKMNSLQTDDTAMYYCARHYDYDGDWFAYWGQGTLVTVSA
VL: QIVLTQSPAIMSASLGERVTMTCTASSRVSSNSLHWYQQKPGSSPKLWIYSTSNLASGVPARFSGSGSGTSYSLTISSMEAEDAATYYCHQYLRSPPTFGGGTKLEIK
modifications: A-15B08 VH Sequence; A-15B08 VL Sequence
notes: as for B1
